Test results: US20250177530A1, “MOLECULES THAT BIND TO ENPP1 POLYPEPTIDES” (UNIVERSITY OF PITTSBURGH - OF THE COMMONWEALTH SYSTEM OF …, priority 2022, published 2025)

Legend:
[1] = molecular target: human ENPP1 on the cell surface (293T-ENPP1 cells, HepG2 cells) (human) (UniProt P22413); assay: flow cytometry on HepG2 cells, APC-A against SSC-A
[2] = molecular target: human ENPP1 on the cell surface (293T-ENPP1 cells, HepG2 cells) (human) (UniProt P22413); assay: flow cytometry on 293T-ENPP1 cells, APC-A against SSC-A

human ENPP1 on the cell surface (293T-ENPP1 cells, HepG2 cells) (human), sequence (P22413 whole entry): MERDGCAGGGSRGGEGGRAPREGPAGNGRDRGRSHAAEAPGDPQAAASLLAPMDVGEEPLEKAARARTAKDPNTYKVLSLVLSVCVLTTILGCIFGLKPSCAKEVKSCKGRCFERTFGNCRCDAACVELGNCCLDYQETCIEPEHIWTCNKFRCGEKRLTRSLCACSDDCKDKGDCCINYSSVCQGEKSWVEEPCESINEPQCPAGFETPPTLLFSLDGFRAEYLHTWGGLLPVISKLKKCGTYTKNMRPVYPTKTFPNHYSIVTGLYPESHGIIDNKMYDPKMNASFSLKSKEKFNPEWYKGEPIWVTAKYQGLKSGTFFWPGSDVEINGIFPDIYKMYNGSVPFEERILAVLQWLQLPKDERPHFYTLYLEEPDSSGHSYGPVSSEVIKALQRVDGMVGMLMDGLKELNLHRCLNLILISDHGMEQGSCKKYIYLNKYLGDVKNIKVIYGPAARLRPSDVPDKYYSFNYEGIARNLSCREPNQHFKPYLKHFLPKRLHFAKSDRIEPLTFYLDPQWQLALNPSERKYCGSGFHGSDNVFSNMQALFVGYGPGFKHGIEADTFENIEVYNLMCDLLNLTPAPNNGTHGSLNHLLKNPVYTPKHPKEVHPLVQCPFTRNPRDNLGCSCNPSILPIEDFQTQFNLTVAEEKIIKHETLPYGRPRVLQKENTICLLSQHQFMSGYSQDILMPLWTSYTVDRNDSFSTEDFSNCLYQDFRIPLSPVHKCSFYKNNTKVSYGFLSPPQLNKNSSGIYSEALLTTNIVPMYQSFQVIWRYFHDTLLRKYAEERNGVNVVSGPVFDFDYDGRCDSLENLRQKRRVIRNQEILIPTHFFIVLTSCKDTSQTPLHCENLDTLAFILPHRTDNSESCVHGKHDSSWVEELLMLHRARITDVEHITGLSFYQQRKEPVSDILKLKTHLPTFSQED

For Isotype Ctrl (antibody), the percent of cells in the APC-positive gate [1] was 0.4% and the percent of cells in the APC-positive gate [2] was 0.4%.
